Results published in US20250282887A1 (Amgen, published 2025).

T1: human MAGEB1 (human, UniProt P43366 1-347)
T1 construct: whole, on cells; Transfected into CHO cells with Myc/DDK tags
T1 sequence (looked up): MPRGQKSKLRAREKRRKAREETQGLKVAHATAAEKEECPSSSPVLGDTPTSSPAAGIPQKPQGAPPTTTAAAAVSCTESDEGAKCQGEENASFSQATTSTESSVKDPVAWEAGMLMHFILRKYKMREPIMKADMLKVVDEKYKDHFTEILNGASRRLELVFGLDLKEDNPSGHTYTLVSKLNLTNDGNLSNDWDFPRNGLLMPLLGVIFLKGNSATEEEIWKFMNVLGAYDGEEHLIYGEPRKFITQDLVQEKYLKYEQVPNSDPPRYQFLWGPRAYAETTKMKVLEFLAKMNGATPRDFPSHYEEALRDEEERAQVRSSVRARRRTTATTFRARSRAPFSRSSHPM

T2: human MAGEB3 (human, UniProt O15480 1-346)
T2 construct: whole, on cells; Transfected into CHO cells with Myc/DDK tags
T2 sequence (looked up): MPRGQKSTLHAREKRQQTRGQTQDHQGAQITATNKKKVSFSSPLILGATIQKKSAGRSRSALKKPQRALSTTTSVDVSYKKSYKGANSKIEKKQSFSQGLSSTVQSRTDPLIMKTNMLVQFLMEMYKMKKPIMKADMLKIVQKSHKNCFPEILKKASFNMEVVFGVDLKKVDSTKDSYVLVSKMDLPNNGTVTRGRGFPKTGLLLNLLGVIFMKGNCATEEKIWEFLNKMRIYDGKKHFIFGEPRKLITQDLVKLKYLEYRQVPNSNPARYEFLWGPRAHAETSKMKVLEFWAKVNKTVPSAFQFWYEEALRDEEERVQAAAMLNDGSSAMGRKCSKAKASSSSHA

T3: human MAGEB10 (human, UniProt Q96LZ2 1-347)
T3 construct: whole, on cells; FFPE cell pellets
T3 sequence (looked up): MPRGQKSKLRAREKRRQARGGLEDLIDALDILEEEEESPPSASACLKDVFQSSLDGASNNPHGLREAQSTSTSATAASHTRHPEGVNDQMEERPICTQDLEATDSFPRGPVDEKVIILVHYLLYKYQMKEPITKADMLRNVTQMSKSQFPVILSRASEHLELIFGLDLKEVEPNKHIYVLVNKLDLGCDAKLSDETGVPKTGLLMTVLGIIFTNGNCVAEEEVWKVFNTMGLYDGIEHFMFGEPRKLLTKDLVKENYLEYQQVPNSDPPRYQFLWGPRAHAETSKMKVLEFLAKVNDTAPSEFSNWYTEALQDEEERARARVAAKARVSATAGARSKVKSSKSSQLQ


Assays:
human MAGEB1 = molecular target: T1, human MAGEB1; assay: IHC, FFPE CHO cells transfected with human MAGEB1
Excerpt: (§1) Negative control cells included parental Chinese hamster ovary (CHO) cells, CHO cells stably transfected with mCherry Vector Control (minus Myc/DDK tags), CHO cells stably transfected with mCherry-human DCAF4L2 (plus Myc/DDK tags). The cross-reactivity control cells included CHO cells transfected with mCherry Vector Control (plus Myc/DDK tags) with one of the human MAGE-B or MAGE-A family members (MAGEA1, MAGEA2, MAGEA3, MAGEA4, MAGEA5, MAGEA6, MAGEA8, MAGEA9, MAGEA11, MAGEA12, MAGEB1, MAGEB3, MAGEB4, MAGEB5, MAGEB6, MAGEB10, MAGEB16, MAGEB17, MAGEB18). Positive control cell lines included CHO cells transfected with mCherry Vector (plus Myc/DDK tags) with human MAGE-B2 or CHO cells transfected with mCherry Vector (open reading frame (ORF); minus Myc/DDK tags) with human MAGEB2, and thirteen human cancer cell lines with known endogenous RNA expression level of MAGEB2 (U266B1, T98G, KMM-1, U20S, CFPAC-1, SCaBER, UACC-257, CFPAC-1, VMRC-LCD, NCI-H1703, UM-UC-3, NCI-H1395, NCIH82).
(§2) FFPE samples were sectioned at 4 μm and mounted on positive charged glass slides. After mounting, paraffin sections were air-dried at room temperature. FFPE TMA samples were received as freshly sectioned and mounted on glass slides. The fully automated IHC assay was performed on a Discovery Ultra Stainer (Ventana Medical Systems, Tucson, AZ) using Ventana Anti-Rabbit HQ (cat #760-4815), Ventana Anti-HQ HRP (cat #760-4820), and Ventana Antibody Diluent with Casein (cat #760-219) (Ventana Medical Systems, Tucson, AZ). The slides were baked on the Discovery Ultra Stainer at 60° C. for 8 minutes, de-paraffinized with Ventana Discovery wash (cat #950-510) for 3 cycles (8 minutes each) at 69° C., and underwent cell conditioning (target retrieval) at 95° C. for 16 minutes (for cell arrays) or 32 minutes (tissues or TMAs) in CC1 buffer (cat #950-500). Following this, slides were incubated with Background Sniper (cat #BS966M, Biocare Medical, Pacheco, CA) in a Ventana Option Prep kit (cat #771-751) for 28 minutes, incubated with CM inhibitor (a part of the Ventana DAB kit cat #760-159) for 12 minutes, and incubated for 1 h at RT with MAGE-B2 antibody diluted with Ventana diluent with Casein in a Ventana Prep kit (cat #770-001) (working concentration at 0.1 μg/ml for cell pellet, or 1-5 ug/ml for tissues) or with a matched concentration of isotype control Rabbit IgG1 antibody.

human MAGEB3 = molecular target: T2, human MAGEB3; assay: IHC, FFPE CHO cells transfected with human MAGEB3
Excerpt: as §1, §2

human MAGEB10 = molecular target: T3, human MAGEB10; assay: IHC, FFPE CHO cells transfected with human MAGEB10
Excerpt: as §1, §2

binding result (human MAGEB1)	binding result (human MAGEB3)	binding result (human MAGEB10)	Binder
no binding (tested: 0.1 µg/ml)	no binding (tested: 0.1 µg/ml)	no binding (tested: 0.1 µg/ml)	1C3 (antibody, V domains shown, also called MAGE-B2 (IC3); anti-MAGEB2 antibody 1C3) VH: QSLEESGGGLVQPEGSLTLTCTAFGVTLTNYYICWVRQAPGKGLEWVGCIDNANGRTYYASWAKGRFTISKTSSTTGTLQMTSLTAADTATYFCARSLATPLWGPGTLVTVSS VL: DIVMTQTPSSVEAAVGGTVTIKCQASQNISSYLAWYQQKPGQPPKLLIYRASTLASGVPSRFKGSGSGTQFTLTISDLECADAATYYCQSYDDSRSSNFFYAFGGGTEVVVKG
no binding (tested: 0.1 µg/ml)	no binding (tested: 0.1 µg/ml)	no binding (tested: 0.1 µg/ml)	4G17 (antibody, IgG1, V domains shown, Rabbit monoclonal IgG1; Tested as supernatant and as small batch purified antibody; also called MAGE-B2 (4G17); anti-MAGEB2 antibody 4G17) VH: QSLEESGGGLVQPEGSLTLTCTASGVTLSNYYICWVRQAPGKGLEWIGCIDNVNGRTYYASWAKGRFTISKTSSTTGTLQMTSLTAADTATYFCARSLATPLWGPGTLVTVSS VL: DIVMTQTPASVEAAVGGTVTIKCQASQNIDSYLAWYQQKPGQPPKLLIYRASTLASGVPSRFKGSGSGTEFTLTISDLECADAATYYCQSYDDSRSSSFFYGFGGGTEVVVK

Continued, binder first:

Binder	binding result (human MAGEB1)	binding result (human MAGEB3)	binding result (human MAGEB10)
1I14 (antibody, V domains shown, also called MAGE-B2 (1i14)) VH: QSVEESGGRLVTPGTPLTLTCTISGFSLSSYAMSWVRQAPGKGLEWIGSIGGGGSAVYASWAKGRFTISKTSTTVDLRITSPTTEDTAMYFCGRGFYSIDLWGPGTLVTVSS VL: DVVMTQTPASVEATVGGTVTIKCQSSQSVYDNNALAWYQQNAGQRPRLLIYGASTLASGVPSRFSASGSGTEFTLTISDLECADAATYYCQCTYYVSSYQNDFGGGTEVVVKG	no binding (tested: 0.1 µg/ml)	no binding (tested: 0.1 µg/ml)	no binding (tested: 0.1 µg/ml)
1J15 (antibody, IgG1, V domains shown, Rabbit monoclonal IgG1; Tested as supernatant and as small batch purified antibody; also called MAGE-B2 (IJ15); anti-MAGEB2 antibody 1J15) VH: QSLEESGGGLVQPEGSLTLTCTAFGFTLNNYYICWVRQAPGKGLEWIACIDNANGRTYYASWAKGRFTISKTSSTTVTLQMTSLTAADTATYFCARSLSTPLWGPGTLVTVSS VL: DIVMTQTPASVEAAVGGTVTIKCQASQSISSYLSWYQQKPGQPPKLLIYRASTLASGVPSRFRGSGSGTQFTLTISDLECADAATYYCQSYDDSSDNNFFYGFGGGTEVVVR	no binding (tested: 0.1 µg/ml)	no binding (tested: 0.1 µg/ml)	no binding (tested: 0.1 µg/ml)
